Earlier results, collected in paper PMC8910494.

Molecular target: FICD (Homo sapiens) (UniProt Q9BVA6)

In the case of FICD (from UniProt Q9BVA6), the Kd is listed as 1.2 nM.
